Experiments:
Assay in all cases: flow cytometry, IgG on cells expressing the mutant
human CD33 variant P48T = human CD33 variant P48T (human, UniProt P20138 18-364)
Procedure: (§1) An alanine scan on human CD33 was performed to the determine the residues on CD33 that are involved in binding to the antibodies investigated. […] Briefly, a mutation library of CD33 was created by high-throughput, site-directed mutagenesis. Each residue was individually mutated to alanine, with alanine codons mutated to serine. The mutant library was arrayed in 384-well microplates and transiently transfected into HEK293-T. Following transfection, cells were incubated with the indicated antibodies (IgG or Fab) at concentrations pre-determined using an independent immunofluorescence titration curve on wild type CD33. […] Binding of each antibody to each mutant clone was determined in duplicates. For each point, background fluorescence was subtracted from the raw data, which were then normalized to antibody reactivity with wild type CD33.
(§2) Antibodies were screened for binding to the human CD33 variants in IgG format. […] For each mutation, background fluorescence was subtracted from the raw data, which were then normalized to antibody reactivity with wild-type CD33.

human CD33 variant P48V = human CD33 variant P48V (human, UniProt P20138 18-364)
Procedure: as §1, §2

human CD33 variant P48L = human CD33 variant P48L (human, UniProt P20138 18-364)
Procedure: as §1, §2

human CD33 variant P48Y = human CD33 variant P48Y (human, UniProt P20138 18-364)
Procedure: as §1, §2

human CD33 variant P48Q = human CD33 variant P48Q (human, UniProt P20138 18-364)
Procedure: as §1, §2

human CD33 variant P48D = human CD33 variant P48D (human, UniProt P20138 18-364)
Sequence of human CD33 variant P48D (P20138 18-364 P48D limits assumed): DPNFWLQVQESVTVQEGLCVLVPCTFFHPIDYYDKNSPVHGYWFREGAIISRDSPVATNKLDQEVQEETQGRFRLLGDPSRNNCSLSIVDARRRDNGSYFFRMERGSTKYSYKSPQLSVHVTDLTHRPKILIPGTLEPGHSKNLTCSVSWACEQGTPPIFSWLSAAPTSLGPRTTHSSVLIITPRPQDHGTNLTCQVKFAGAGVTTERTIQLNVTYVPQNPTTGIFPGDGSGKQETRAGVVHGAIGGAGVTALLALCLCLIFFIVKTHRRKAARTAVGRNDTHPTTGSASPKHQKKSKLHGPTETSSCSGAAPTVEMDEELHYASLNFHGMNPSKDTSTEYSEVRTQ
Procedure: as §1, §2

human CD33 variant P48S = human CD33 variant P48S (human, UniProt P20138 18-364)
Sequence of human CD33 variant P48S (P20138 18-364 P48S limits assumed): as the sequence (P20138 18-364 P48D limits assumed) above, with D31S counted along it
Procedure: as §1, §2

human CD33 variant Y49H = human CD33 variant Y49H (human, UniProt P20138 18-364)
Sequence of human CD33 variant Y49H (P20138 18-364 Y49H limits assumed): as the sequence (P20138 18-364 P48D limits assumed) above, with D31P, Y32H counted along it
Procedure: as §1, §2

human CD33 variant Y49R = human CD33 variant Y49R (human, UniProt P20138 18-364)
Sequence of human CD33 variant Y49R (P20138 18-364 Y49R limits assumed): as the sequence (P20138 18-364 P48D limits assumed) above, with D31P, Y32R counted along it
Procedure: as §1, §2

human CD33 variant Y49V = human CD33 variant Y49V (human, UniProt P20138 18-364)
Sequence of human CD33 variant Y49V (P20138 18-364 Y49V limits assumed): as the sequence (P20138 18-364 P48D limits assumed) above, with D31P, Y32V counted along it
Procedure: as §1, §2

human CD33 variant Y49C = human CD33 variant Y49C (human, UniProt P20138 18-364)
Sequence of human CD33 variant Y49C (P20138 18-364 Y49C limits assumed): as the sequence (P20138 18-364 P48D limits assumed) above, with D31P, Y32C counted along it
Procedure: as §1, §2

human CD33 variant Y49S = human CD33 variant Y49S (human, UniProt P20138 18-364)
Sequence of human CD33 variant Y49S (P20138 18-364 Y49S limits assumed): as the sequence (P20138 18-364 P48D limits assumed) above, with D31P, Y32S counted along it
Procedure: as §1, §2

human CD33 variant Y49I = human CD33 variant Y49I (human, UniProt P20138 18-364)
Sequence of human CD33 variant Y49I (P20138 18-364 Y49I limits assumed): as the sequence (P20138 18-364 P48D limits assumed) above, with D31P, Y32I counted along it
Procedure: as §1, §2

human CD33 variant Y49L = human CD33 variant Y49L (human, UniProt P20138 18-364)
Sequence of human CD33 variant Y49L (P20138 18-364 Y49L limits assumed): as the sequence (P20138 18-364 P48D limits assumed) above, with D31P, Y32L counted along it
Procedure: as §1, §2

human CD33 variant Y50S = human CD33 variant Y50S (human, UniProt P20138 18-364)
Sequence of human CD33 variant Y50S (P20138 18-364 Y50S limits assumed): as the sequence (P20138 18-364 P48D limits assumed) above, with D31P, Y33S counted along it
Procedure: as §1, §2

human CD33 variant Y50N = human CD33 variant Y50N (human, UniProt P20138 18-364)
Sequence of human CD33 variant Y50N (P20138 18-364 Y50N limits assumed): as the sequence (P20138 18-364 P48D limits assumed) above, with D31P, Y33N counted along it
Procedure: as §1, §2

human CD33 variant D51N = human CD33 variant D51N (human, UniProt P20138 18-364)
Sequence of human CD33 variant D51N (P20138 18-364 D51N limits assumed): as the sequence (P20138 18-364 P48D limits assumed) above, with D31P, D34N counted along it
Procedure: as §1, §2

human CD33 variant K52S = human CD33 variant K52S (human, UniProt P20138 18-364)
Sequence of human CD33 variant K52S (P20138 18-364 K52S limits assumed): as the sequence (P20138 18-364 P48D limits assumed) above, with D31P, K35S counted along it
Procedure: as §1, §2

human CD33 variant I47L = human CD33 variant I47L (human, UniProt P20138 18-364)
Sequence of human CD33 variant I47L (P20138 18-364 I47L limits assumed): as the sequence (P20138 18-364 P48D limits assumed) above, with I30L, D31P counted along it
Procedure: as §1, §2

human CD33 variant K52E = human CD33 variant K52E (human, UniProt P20138 18-364)
Sequence of human CD33 variant K52E (P20138 18-364 K52E limits assumed): as the sequence (P20138 18-364 P48D limits assumed) above, with D31P, K35E counted along it
Procedure: as §1, §2

human CD33 variant M120L = human CD33 variant M120L (human, UniProt P20138 18-364)
Sequence of human CD33 variant M120L (P20138 18-364 M120L limits assumed): as the sequence (P20138 18-364 P48D limits assumed) above, with D31P, M103L counted along it
Procedure: as §1, §2

human CD33 variant I47F = human CD33 variant I47F (human, UniProt P20138 18-364)
Sequence of human CD33 variant I47F (P20138 18-364 I47F limits assumed): as the sequence (P20138 18-364 P48D limits assumed) above, with I30F, D31P counted along it
Procedure: as §1, §2

human CD33 variant R122S = human CD33 variant R122S (human, UniProt P20138 18-364)
Sequence of human CD33 variant R122S (P20138 18-364 R122S limits assumed): as the sequence (P20138 18-364 P48D limits assumed) above, with D31P, R105S counted along it
Procedure: as §1, §2

human CD33 variant Y127H = human CD33 variant Y127H (human, UniProt P20138 18-364)
Sequence of human CD33 variant Y127H (P20138 18-364 Y127H limits assumed): as the sequence (P20138 18-364 P48D limits assumed) above, with D31P, Y110H counted along it
Procedure: as §1, §2

human CD33 variant S131G = human CD33 variant S131G (human, UniProt P20138 18-364)
Sequence of human CD33 variant S131G (P20138 18-364 S131G limits assumed): as the sequence (P20138 18-364 P48D limits assumed) above, with D31P, S114G counted along it
Procedure: as §1, §2

Sequence of human CD33 variant P48V (P20138 18-364 P48V limits assumed): as the sequence (P20138 18-364 P48D limits assumed) above, with D31V counted along it
Sequence of human CD33 variant P48L (P20138 18-364 P48L limits assumed): as the sequence (P20138 18-364 P48D limits assumed) above, with D31L counted along it
Sequence of human CD33 variant P48Q (P20138 18-364 P48Q limits assumed): as the sequence (P20138 18-364 P48D limits assumed) above, with D31Q counted along it
Sequence of human CD33 variant P48T (P20138 18-364 P48T limits assumed): as the sequence (P20138 18-364 P48D limits assumed) above, with D31T counted along it
Sequence of human CD33 variant P48Y (P20138 18-364 P48Y limits assumed): as the sequence (P20138 18-364 P48D limits assumed) above, with D31Y counted along it

B1: Refmab #2 (antibody, human IgG1, V domains shown)
VH: QVQLVQSGAEVKKPGSSVKVSCKASGGTFSDYAISWVRQAPGQGLEWMGRIIPILGVADYAQKFQGRVTITADKSTRTAYMELSSLRSEDTAVYYCARNWADAFDIWGQGTMVTVSS
VL: DIQLTQSPSSLSASVGDRVTITCRASQGISSVLAWYQQKPGKAPKLLIYDASSLESGVPSRFSGSGSGTDFTLTISSLQPEDFATYYCQQFDSSITFGQGTKLEIK
notes: Tested in IgG format; human IgG1 Fc silent (PG-LALA)
Human CD33 variant P48T
  Mean % WT Binding: 71.3 % of WT
Human CD33 variant P48V
  Mean % WT Binding: 79.5 % of WT
Human CD33 variant P48L
  Mean % WT Binding: 90.4 % of WT
Human CD33 variant P48Y
  Mean % WT Binding: 21.6 % of WT
Human CD33 variant P48Q
  Mean % WT Binding: 106 % of WT
Human CD33 variant P48D
  Mean % WT Binding: 10.4 % of WT
Human CD33 variant P48S
  Mean % WT Binding: 92.1 % of WT
Human CD33 variant Y49H
  Mean % WT Binding: 17.2 % of WT
Human CD33 variant Y49R
  Mean % WT Binding: 44.9 % of WT
Human CD33 variant Y49V
  Mean % WT Binding: 90.4 % of WT
Human CD33 variant Y49C
  Mean % WT Binding: 3.2 % of WT
Human CD33 variant Y49S
  Mean % WT Binding: 87.2 % of WT
Human CD33 variant Y49I
  Mean % WT Binding: 94.3 % of WT
Human CD33 variant Y49L
  Mean % WT Binding: 108 % of WT
Human CD33 variant Y50S
  Mean % WT Binding: 123 % of WT
Human CD33 variant Y50N
  Mean % WT Binding: 108 % of WT
Human CD33 variant D51N
  Mean % WT Binding: 96.7 % of WT
Human CD33 variant K52S
  Mean % WT Binding: 113 % of WT
Human CD33 variant I47L
  Mean % WT Binding: 2.8 % of WT
Human CD33 variant K52E
  Mean % WT Binding: 52.4 % of WT
Human CD33 variant M120L
  Mean % WT Binding: 124 % of WT
Human CD33 variant I47F
  Mean % WT Binding: 2.2 % of WT
Human CD33 variant R122S
  Mean % WT Binding: 3.4 % of WT
Human CD33 variant Y127H
  Mean % WT Binding: 114 % of WT
Human CD33 variant S131G
  Mean % WT Binding: 112 % of WT

B2: Refmab #3 (antibody, human IgG1, V domains shown)
VH: QVQLVQSGAEVKKPGSSVKVSCKASGYTFTDYNMHWVRQAPGQGLEWIGYIYPYNGGTGYNQKFKSKATITADESTNTAYMELSSLRSEDTAVYYCARGRPAMDYWGQGTLVTVSS
VL: DIQMTQSPSSLSASVGDRVTITCRASESVDNYGISFMNWFQQKPGKAPKLLIYAASNQGSGVPSRFSGSGSGTDFTLTISSLQPDDFATYYCQQSKEVPWTFGQGTKVEIK
notes: as for B1
Human CD33 variant P48T
  Mean % WT Binding: 102 % of WT
Human CD33 variant P48V
  Mean % WT Binding: 113 % of WT
Human CD33 variant P48L
  Mean % WT Binding: 111 % of WT
Human CD33 variant P48Y
  Mean % WT Binding: 90.3 % of WT
Human CD33 variant P48Q
  Mean % WT Binding: 101 % of WT
Human CD33 variant P48D
  Mean % WT Binding: 100 % of WT
Human CD33 variant P48S
  Mean % WT Binding: 100 % of WT
Human CD33 variant Y49H
  Mean % WT Binding: 92.1 % of WT
Human CD33 variant Y49R
  Mean % WT Binding: 79 % of WT
Human CD33 variant Y49V
  Mean % WT Binding: 106 % of WT
Human CD33 variant Y49C
  Mean % WT Binding: 59.2 % of WT
Human CD33 variant Y49S
  Mean % WT Binding: 107 % of WT
Human CD33 variant Y49I
  Mean % WT Binding: 109 % of WT
Human CD33 variant Y49L
  Mean % WT Binding: 93.8 % of WT
Human CD33 variant Y50S
  Mean % WT Binding: 97.2 % of WT
Human CD33 variant Y50N
  Mean % WT Binding: 92.4 % of WT
Human CD33 variant D51N
  Mean % WT Binding: 107 % of WT
Human CD33 variant K52S
  Mean % WT Binding: 96.8 % of WT
Human CD33 variant I47L
  Mean % WT Binding: 102 % of WT
Human CD33 variant K52E
  Mean % WT Binding: 106 % of WT
Human CD33 variant M120L
  Mean % WT Binding: 90.8 % of WT
Human CD33 variant I47F
  Mean % WT Binding: 102 % of WT
Human CD33 variant R122S
  Mean % WT Binding: 111 % of WT
Human CD33 variant Y127H
  Mean % WT Binding: 75.4 % of WT
Human CD33 variant S131G
  Mean % WT Binding: 100 % of WT

B3: Refmab #4 (antibody, human IgG1, V domains shown)
VH: QVQLVQSGAEVKKPGESVKVSCKASGYTFTNYGMNWVKQAPGQGLEWMGWINTYTGEPTYADKFQGRVTMTTDTSTSTAYMEIRNLGGDDTAVYYCARWSWSDGYYVYFDYWGQGTSVTVSS
VL: DIVMTQSPDSLTVSLGERTTINCKSSQSVLDSSTNKNSLAWYQQKPGQPPKLLLSWASTRESGIPDRFSGSGSGTDFTLTIDSPQPEDSATYYCQQSAHFPITFGQGTRLEIK
notes: as for B1
Human CD33 variant P48T
  Mean % WT Binding: 11.7 % of WT
Human CD33 variant P48V
  Mean % WT Binding: 88.5 % of WT
Human CD33 variant P48L
  Mean % WT Binding: 1 % of WT
Human CD33 variant P48Y
  Mean % WT Binding: 0.6 % of WT
Human CD33 variant P48Q
  Mean % WT Binding: 2.1 % of WT
Human CD33 variant P48D
  Mean % WT Binding: 2 % of WT
Human CD33 variant P48S
  Mean % WT Binding: 0.5 % of WT
Human CD33 variant Y49H
  Mean % WT Binding: 95.1 % of WT
Human CD33 variant Y49R
  Mean % WT Binding: 55.7 % of WT
Human CD33 variant Y49V
  Mean % WT Binding: 46.9 % of WT
Human CD33 variant Y49C
  Mean % WT Binding: 0.5 % of WT
Human CD33 variant Y49I
  Mean % WT Binding: 94 % of WT
Human CD33 variant Y49L
  Mean % WT Binding: 110 % of WT
Human CD33 variant Y50S
  Mean % WT Binding: 2.9 % of WT
Human CD33 variant Y50N
  Mean % WT Binding: 2.3 % of WT
Human CD33 variant D51N
  Mean % WT Binding: 76.4 % of WT
Human CD33 variant K52S
  Mean % WT Binding: 85 % of WT
Human CD33 variant I47L
  Mean % WT Binding: 88.5 % of WT
Human CD33 variant K52E
  Mean % WT Binding: 51.4 % of WT
Human CD33 variant M120L
  Mean % WT Binding: 110 % of WT
Human CD33 variant I47F
  Mean % WT Binding: 102 % of WT
Human CD33 variant R122S
  Mean % WT Binding: 90.2 % of WT
Human CD33 variant Y127H
  Mean % WT Binding: 105 % of WT
Human CD33 variant S131G
  Mean % WT Binding: 96.9 % of WT

— patent US20260242735A1 (UNIVERSIT T BASEL, published 2026)
